From doi:10.1101/2020.10.08.332312 (bioRxiv, 2020)

Target: T1, Trs31 (subunit of the recombinant TRAPPIII complex) (S. cerevisiae, UniProt Q03337 1-283)
T1 sequence: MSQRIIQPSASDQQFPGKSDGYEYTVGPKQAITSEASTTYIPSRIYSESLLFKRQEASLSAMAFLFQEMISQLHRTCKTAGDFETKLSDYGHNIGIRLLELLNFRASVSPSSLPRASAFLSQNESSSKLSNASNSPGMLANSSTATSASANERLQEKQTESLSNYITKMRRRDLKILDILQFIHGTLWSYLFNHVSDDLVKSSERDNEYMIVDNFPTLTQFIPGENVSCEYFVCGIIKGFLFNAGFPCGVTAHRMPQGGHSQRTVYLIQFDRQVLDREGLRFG
Experiment: cryo-EM structure

B1: Ypt1-7xHis (yeast Rab1/Ypt1 with the two C-terminal cysteines replaced by an affinity tag) (natural protein)
chain: not shown
  binding result: binds
